Laboratory results taken from PMC12090761.

Legend:
[1] = target: HIV-1 Gag (Pr55), immature Gag lattice of NL4-3 VLPs (HIV-1 (NL4-3))
[2] = target: HIV-1 Gag (Pr55), immature Gag lattice of NL4-3 VLPs (HIV-1 (NL4-3)); settings: scale: mol HA-Halo-gt-EnvCT/mol NL4-3
[3] = target: HIV-1 Gag (Pr55), immature Gag lattice of NL4-3 VLPs (HIV-1 (NL4-3)); remark: listed apart in the source
[4] = target: HIV-1 Gag (Pr55), immature Gag lattice of NL4-3 VLPs (HIV-1 (NL4-3)); experiment: co-sedimentation; immature VLPs from HEK293T stripped of membrane with 0.05% NP-40 (Env trimers) or 0.075% NP-40 (mCD4 chimeras) or PBS, 15 minutes at 25°C, sedimented through 20% sucrose at 60,000 x g, 4°C, 1 hour; pellets blotted for gp41, CD4 and Pr55

monomeric CD4-EnvCT 712YA chimera (from UniProt P01730 26-420)
incorporation into VLPs released from transduced A2.01 T cells (western blot), mCD4-EnvCT relative to mCD4-ΔCT [1]: 16.7 fold

HA-Halo-gt-EnvCT (712YA) chimera
restriction of the incorporation of Env-712YA trimers into VLPs (gp41/Pr55 by western blot; HEK293T co-transfected with chimera and NL4-3 pol(-) Env-712YA plasmids at 0 to 1.375 mol/mol) [2]: 0.3 | double exponential loss curve of the competitive inhibition of 712YA Env incorporation into VLPs; half-maximal inhibition [3]: 0.6 gp41/Pr55

HIV-1 WT Env (NL4-3), gp120/gp41 trimer (complex)
percent co-sedimenting with Gag after detergent [4]: 10%
